Data reported in article PMC5766566, “Characterization of human small heat shock protein HSPB1 α-crystallin domain localized mutants associated with hereditary motor neuron diseases” (Scientific Reports, 2018).

Legend:
Conditions in all cases: both partners purified
[1] = target: T1, human small heat shock protein HSPB1, wild type (human, UniProt P04792 1-205); experiment: cross-linking; disulfide cross-linking of mixtures: 50 μM of each protein in 50 mM sodium phosphate pH 7.5, 100 mM NaCl, 5 mM DTT overnight at 37 °C, then dialysis without DTT at 20 °C for 24 h; non-reducing SDS-PAGE
T1 construct: HSPB1 (HSP27), human; six Trp); Two constructs and two purification routes were used and are said to give indistinguishable proteins; Polydisperse oligomer, on average 23 subunits by SEC-SAXS; also called HSP27; WT HSPB1; source: recombinant (pET23b or pETHSUK construct), expressed as described earlier; purified (ammonium sulfate fractionation, anion-exchange, SEC; or subtractive IMAC, …
T1 sequence (P04792 whole entry): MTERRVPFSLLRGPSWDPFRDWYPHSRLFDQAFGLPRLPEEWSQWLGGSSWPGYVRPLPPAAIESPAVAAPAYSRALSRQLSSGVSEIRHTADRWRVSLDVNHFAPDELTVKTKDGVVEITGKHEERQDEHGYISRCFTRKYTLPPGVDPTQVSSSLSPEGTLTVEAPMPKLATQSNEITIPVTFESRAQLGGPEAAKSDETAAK

[2] = target: T2, human HSPB1 S135F mutant (human, UniProt P04792 1-205, S135F); experiment: as above
T2 construct: HSPB1 (HSP27), human, with the autosomal dominant Charcot-Marie-Tooth mutation S135F; Disease mutation found in patients; Probably the whole protein; SUMO carrier probably removed (subtractive IMAC); The abstract once prints R135F for this mutant; source: recombinant (pET23b or pETHSUK construct), expressed as described earlier; purified (ammonium sulfate fractionation, anion-exchange, SEC; or …)
T2 sequence (P04792 whole entry S135F): as the sequence (P04792 whole entry) above, with S135F counted along it

[3] = target: T3, human HSPB1 R127W mutant (human, UniProt P04792 1-205, R127W); experiment: as above
T3 construct: HSPB1 (HSP27), human, with the autosomal dominant Charcot-Marie-Tooth mutation R127W; Disease mutation found in patients; Probably the whole protein; SUMO carrier probably removed (subtractive IMAC); source: recombinant (pET23b or pETHSUK construct), expressed as described earlier
T3 sequence (P04792 whole entry R127W): as the sequence (P04792 whole entry) above, with R127W counted along it

[4] = target: T2, human HSPB1 S135F mutant; experiment: SEC; equimolar mixture, 30 μM per monomer of each sHSP in buffer S, preincubated at 4 °C for 1 hr, then Superdex 200 HR
[5] = target: T3, human HSPB1 R127W mutant; experiment: as above
[6] = target: T1, human small heat shock protein HSPB1, …; experiment: SEC; equimolar mixture, 30 μM per monomer of each sHSP in buffer S, preincubated at 42 °C for 1 hr, then Superdex 200 HR

| binding result [1] | binding result [2] | binding result [3] | binding result [4] | binding result [5] | binding result [6] | Binder |
| --- | --- | --- | --- | --- | --- | --- |
| binds | binds | binds | – | – | – | human HSPB6 C46S/E116C double mutant (natural protein, UniProt O14558 1-160, looked up, HSPB6 (HSP20), human, double mutant C46S/E116C made for disulfide cross-linking) MEIPVPVQPSWLRRASAPLPGLSAPGRLFDQRFGEGLLEAELAALSPTTLAPYYLRAPSVALPVAQVPTDPGHFSVLLDVKHFSPEEIAVKVVGEHVEVHARHEERPDEHGFVARCFHRRYRLPPGVDPAAVTSALSPEGVLSIQAAPASAQAPPPAAAK |
| – | – | – | binds | binds | binds | human HSPB6, wild type (natural protein, UniProt O14558 1-160, looked up, HSPB6 (HSP20), human small heat shock protein; also called HSP20; WT HSPB6) MEIPVPVQPSWLRRASAPLPGLSAPGRLFDQRFGEGLLEAELAALCPTTLAPYYLRAPSVALPVAQVPTDPGHFSVLLDVKHFSPEEIAVKVVGEHVEVHARHEERPDEHGFVAREFHRRYRLPPGVDPAAVTSALSPEGVLSIQAAPASAQAPPPAAAK |
